US8993717B2, “Gadd45beta targeting agents” (Imperial Innovations Limited, priority 2009, dated 2015)
Blank lines part the entries; values can stand above or below the substance they belong to. Primed or numbered codes have the meaning given here. * marks the point of attachment. Fmoc = O=C(OCC1c2ccccc2-c2ccccc21)*; Myristoyl = CCCCCCCCCCCCCC(=O)*; OMe′ = Asp methyl ester; Cbz = O=C(OCc1ccccc1)*; βAla = NCCC(=O)O

Molecular target: T1, Gadd45β/MKK7 interaction (Homo sapiens, UniProt O14733)
T1 construct: The GST-fused full-length kinase was coated for 16 h at 4° C., at a concentration of 42 nM; made in house
T1 sequence (O14733 1-419): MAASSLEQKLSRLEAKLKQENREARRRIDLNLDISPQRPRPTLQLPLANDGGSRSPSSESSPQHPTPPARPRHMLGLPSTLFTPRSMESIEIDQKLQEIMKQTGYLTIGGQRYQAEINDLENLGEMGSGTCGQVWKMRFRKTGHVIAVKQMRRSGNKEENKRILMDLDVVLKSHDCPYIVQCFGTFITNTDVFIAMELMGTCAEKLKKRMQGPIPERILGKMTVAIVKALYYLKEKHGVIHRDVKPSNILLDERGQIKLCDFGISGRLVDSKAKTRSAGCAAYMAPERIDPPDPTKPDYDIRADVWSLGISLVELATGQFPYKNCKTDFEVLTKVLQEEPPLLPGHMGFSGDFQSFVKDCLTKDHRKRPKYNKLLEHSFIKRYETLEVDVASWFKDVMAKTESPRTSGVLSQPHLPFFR
Test: ELISA competition assay of biotin-hGadd45β binding to coated GST-MKK7
Method: To evaluate the inhibitory properties of peptides, ELISA-based assays were performed. In these assays, a fusion protein of glutathione S-transferase (GST) and mitogen-activated protein kinase kinase 7 (MKK7) was coated onto wells of a 96-well plate, while biotinylated-hGadd45β was used in solution. hGadd45β was biotinylated using an EZ Link NHS-LC-biotin kit (Pierce, Rockford, Ill.), according to Tornatore et al. (Tornatore L., et al. (2008). J Mol Biol; 378:97-111).
Firstly, the association between Gadd45β and MKK7 was investigated by ELISA assays as also reported in Tornatore et al. (Tornatore L., et al. (2008). J Mol Biol; 378:97-111). The GST-fused full-length kinase was coated for 16 h at 4° C., at a concentration of 42 nM in buffer A (25 mM Tris pH 7.5, 150 mM NaCl, 1 mM DTT and 1 mM EDTA) into wells of a 96-well microliter plate. Some wells were filled with buffer alone and were used as blanks. After incubation for 16 h at 4° C., the solutions were removed and the wells were filled with 350 μL of a 1% (w/v) solution of NFDM (Non Fat Dry Milk) in PBS (phosphate buffered saline). The plate was incubated for 1 h at 37° C. in the dark. After washing with buffer T-PBS (PBS with 0.004% (v/v) Tween detergent), the wells were filled with 100 μL of biotinylated-hGadd45β at concentrations ranging from 8.4 nM to 168 nM. Each data point was performed in triplicate. Following incubation for 1 hr in the dark at 37° C. the solutions were removed and the wells were again washed with T-PBS. Then 100 μL of a 1:10,000 dilution of horseradish peroxidase-conjugated streptavidin dissolved in buffer was added to each well and the plate incubated for 1 hr at 37° C. in the dark. After removal of the enzyme solution and washing, 100 μL of the chromogenic substrate o-phenylendiamine (0.4 mg/mL in 50 mM sodium phosphate-citrate buffer, containing 0.4 mg/mL of urea in hydrogen peroxide) was added and the colour was allowed to develop in the dark for 5 min. The reaction was stopped by adding 50 μL of 2.5 M H2SO4. The absorbance at 490 nm was measured in all wells and the values were averaged after subtracting the corresponding blanks. Bound protein was then detected as described above. The molar concentration of biotinylated-hGadd45β at which the half-maximal ELISA signal is detected corresponds to the dissociation constant (KD) (Friguet B, Chaffotte A F, Djavadi-Ohaniance L, Goldberg M E. J Immunol Methods. 1985 Mar. 18; 77 (2):305-19). Binding competition assays were performed by coating GST-MKK7 at 42 nM as described, a concentration of biotinylated-hGadd45β of 21 nM (pre-saturation conditions 1:0.5 mol/mol ratio) and, in a first test, using competitors at 21 nM. The binding of biotinylated hGadd45β to GST-MKK7 was analyzed in the presence of increasing amounts of competitor peptide (concentrations ranging from 0.01 nM to 100 nM), and the values obtained with the competitor were expressed as the percentage of the binding detected in the absence of competitor. […] According to the convention adopted in the table “L-Xaa” and “D-Xaa” refer to the L and D forms of amino acid Xaa.
A simplified combinatorial peptide library (Marasco et al. 2008, Curr. Protein Pept. Sci. 9:447-67) was screened for antagonists of the Gadd45β/MKK7 interaction. This library contained a total of 12^4=20,736 different tetrapeptides formed by combinations of the following amino acid residues Gln (Q), Ser (S), Arg (R), Ala (A), Tyr (Y), Pro (P), Met (M), Cys (C), Phe (F), Leu (L), His (H), Asp (D), and was iteratively deconvoluted in four steps by ELISA competition assays using at each step coated MKK7 (42 nM), soluble-biotin-hGadd45β (21 nM) and each of the 12 sub-libraries (42 nM).

[1] = Table II, modified pure peptides
[2] = Table I, initial Elisa screening, coated MKK7 42 nM, biotin-hGadd45β 21 nM, competitor 21 nM, sub-libraries 42 nM

% Inhibition of Gadd45β-MKK7 binding [1]: 58%
Substance: Ac-YDHW-NH2

% Inhibition of Gadd45β-MKK7 binding [1]: 35%
Substance: Ac-YDKF-NH2

% Inhibition of Gadd45β-MKK7 binding [1]: 23%
Substance: Ac-YDKW-NH2

% Inhibition of Gadd45β-MKK7 binding [1]: 45%
% Inhibition of Gadd45β-MKK7 binding (Table III, modified peptides): 19%
Substance: Ac-YDRF-NH2

% Inhibition of Gadd45β-MKK7 binding [1]: 43%
Substance: Ac-YDRW-NH2

% Inhibition of Gadd45β-MKK7 binding (Table III, modified peptides): 13%
Substance: Ac-YEAF-NH2

% Inhibition of Gadd45β-MKK7 binding [1]: 64%
Substance: Ac-YEHW-NH2

% Inhibition of Gadd45β-MKK7 binding [1]: 64%
Substance: Ac-YEKF-NH2

% Inhibition of Gadd45β-MKK7 binding [1]: 27%
Substance: Ac-YEKW-NH2

% Inhibition of Gadd45β-MKK7 binding (Table III, modified peptides): 13%
Substance: Ac-YEPF-NH2

% Inhibition of Gadd45β-MKK7 binding (Table III, modified peptides): 28%
Substance: Ac-YERA-NH2

% Inhibition of Gadd45β-MKK7 binding [1]: 93%
inhibition of Gadd45β/MKK7 complex formation in ELISA competition assays (result in words): IC50s similar to those of DTPs
Substance: Ac-YERF-NH2

% Inhibition of Gadd45β-MKK7 binding (Table III, modified peptides): 0%
Substance: Ac-YERP-NH2

% Inhibition of Gadd45β-MKK7 binding [1]: 59%
Substance: Ac-YERW-NH2

% Inhibition of Gadd45β-MKK7 binding (Table III, modified peptides): 13%
Substance: Ac-YPRF-NH2

% Inhibition of Gadd45β-MKK7 binding [2]: 99%
Substance: Fmoc(βAla)2-YDHF-NH2 ({Fmoc-βAla-βAla}-YDHF-NH2)

% Inhibition of Gadd45β-MKK7 binding (Table III, modified peptides): 58%
Substance: Fmoc-YDHF-NH2

% Inhibition of Gadd45β-MKK7 binding (Table III, modified peptides): 26%
Substance: Myr-YDHF-NH2 (Myristoyl-YDHF-NH2)

% Inhibition of Gadd45β-MKK7 binding (Table III, modified peptides): 28%
Substance: Myr-YDHQ-NH2 (Myristoyl-YDHQ-NH2)

% Inhibition of Gadd45β-MKK7 binding (Table III, modified peptides): 84%
Substance: Z-YD(OMe)HF-NH2 (Cbz-YD(OMe′)HF-NH2)

% Inhibition of Gadd45β-MKK7 binding (Table III, modified peptides): 3%
Substance: Z-YD(OMe)HQ-NH2 (Cbz-YD(OMe′)HQ-NH2)

% Inhibition of Gadd45β-MKK7 binding (Table III, modified peptides): 13%
Substance: Z-YDHQ-NH2 (Cbz-YDHQ-NH2)

More lines, now with the values behind:

Substance: Ac-YDHQLys(Z)-NH2 (Ac-YDHQK(Cbz)-NH2; SMILES CC(=O)N[C@@H](Cc1ccc(O)cc1)C(=O)N[C@@H](CC(=O)O)C(=O)N[C@@H](Cc1c[nH]cn1)C(=O)N[C@@H](CCC(N)=O)C(=O)N[C@@H](CCCCNC(=O)OCc1ccccc1)C(N)=O)
% Inhibition of Gadd45β-MKK7 binding (Table III, modified peptides): 2%

Substance: Ac-YEHF-NH2
% Inhibition of Gadd45β-MKK7 binding [1]: 52%
% Inhibition of Gadd45β-MKK7 binding (Table III, modified peptides): 23%

Substance: Ac-YERFLys(Z)-NH2 (Ac-YERFK(Cbz)-NH2; SMILES CC(=O)N[C@@H](Cc1ccc(O)cc1)C(=O)N[C@@H](CCC(=O)O)C(=O)N[C@@H](CCCNC(=N)N)C(=O)N[C@@H](Cc1ccccc1)C(=O)N[C@@H](CCCCNC(=O)OCc1ccccc1)C(N)=O)
% Inhibition of Gadd45β-MKK7 binding (Table III, modified peptides): 6%

Substance: Benzoic acid-YDHF-NH2
% Inhibition of Gadd45β-MKK7 binding (Table III, modified peptides): 0%

Substance: Benzoic acid-YDHQ-NH2
% Inhibition of Gadd45β-MKK7 binding (Table III, modified peptides): 1%

Substance: Benzoic acid-YERF-NH2
% Inhibition of Gadd45β-MKK7 binding (Table III, modified peptides): 24%

Substance: Fmoc(βAla)2-YDHA-NH2 ({Fmoc-βAla-βAla}-YDHA-NH2; SMILES C[C@H](NC(=O)[C@H](Cc1c[nH]cn1)NC(=O)[C@H](CC(=O)O)NC(=O)[C@H](Cc1ccc(O)cc1)NC(=O)CCNC(=O)CCNC(=O)OCC1c2ccccc2-c2ccccc21)C(N)=O)
% Inhibition of Gadd45β-MKK7 binding [2]: 15%

Substance: Fmoc(βAla)2-YDHC-NH2 ({Fmoc-βAla-βAla}-YDHC-NH2; SMILES NC(=O)[C@H](CS)NC(=O)[C@H](Cc1c[nH]cn1)NC(=O)[C@H](CC(=O)O)NC(=O)[C@H](Cc1ccc(O)cc1)NC(=O)CCNC(=O)CCNC(=O)OCC1c2ccccc2-c2ccccc21)
% Inhibition of Gadd45β-MKK7 binding [2]: 44%

Substance: Fmoc(βAla)2-YDHD-NH2 ({Fmoc-βAla-βAla}-YDHD-NH2; SMILES NC(=O)[C@H](CC(=O)O)NC(=O)[C@H](Cc1c[nH]cn1)NC(=O)[C@H](CC(=O)O)NC(=O)[C@H](Cc1ccc(O)cc1)NC(=O)CCNC(=O)CCNC(=O)OCC1c2ccccc2-c2ccccc21)
% Inhibition of Gadd45β-MKK7 binding [2]: 0%

Substance: Fmoc(βAla)2-YDHH-NH2 ({Fmoc-βAla-βAla}-YDHH-NH2; SMILES NC(=O)[C@H](Cc1c[nH]cn1)NC(=O)[C@H](Cc1c[nH]cn1)NC(=O)[C@H](CC(=O)O)NC(=O)[C@H](Cc1ccc(O)cc1)NC(=O)CCNC(=O)CCNC(=O)OCC1c2ccccc2-c2ccccc21)
% Inhibition of Gadd45β-MKK7 binding [2]: 40%

Substance: Fmoc(βAla)2-YDHL-NH2 ({Fmoc-βAla-βAla}-YDHL-NH2; SMILES CC(C)C[C@H](NC(=O)[C@H](Cc1c[nH]cn1)NC(=O)[C@H](CC(=O)O)NC(=O)[C@H](Cc1ccc(O)cc1)NC(=O)CCNC(=O)CCNC(=O)OCC1c2ccccc2-c2ccccc21)C(N)=O)
% Inhibition of Gadd45β-MKK7 binding [2]: 33%

Substance: Fmoc(βAla)2-YDHM-NH2 ({Fmoc-βAla-βAla}-YDHM-NH2; SMILES CSCC[C@H](NC(=O)[C@H](Cc1c[nH]cn1)NC(=O)[C@H](CC(=O)O)NC(=O)[C@H](Cc1ccc(O)cc1)NC(=O)CCNC(=O)CCNC(=O)OCC1c2ccccc2-c2ccccc21)C(N)=O)
% Inhibition of Gadd45β-MKK7 binding [2]: 14%

Substance: Fmoc(βAla)2-YDHP-NH2 ({Fmoc-βAla-βAla}-YDHP-NH2; SMILES NC(=O)[C@@H]1CCCN1C(=O)[C@H](Cc1c[nH]cn1)NC(=O)[C@H](CC(=O)O)NC(=O)[C@H](Cc1ccc(O)cc1)NC(=O)CCNC(=O)CCNC(=O)OCC1c2ccccc2-c2ccccc21)
% Inhibition of Gadd45β-MKK7 binding [2]: 16%

Substance: Fmoc(βAla)2-YDHR-NH2 ({Fmoc-βAla-βAla}-YDHR-NH2; SMILES N=C(N)NCCC[C@H](NC(=O)[C@H](Cc1c[nH]cn1)NC(=O)[C@H](CC(=O)O)NC(=O)[C@H](Cc1ccc(O)cc1)NC(=O)CCNC(=O)CCNC(=O)OCC1c2ccccc2-c2ccccc21)C(N)=O)
% Inhibition of Gadd45β-MKK7 binding [2]: 2%

Substance: Fmoc(βAla)2-YDHS-NH2 ({Fmoc-βAla-βAla}-YDHS-NH2; SMILES NC(=O)[C@H](CO)NC(=O)[C@H](Cc1c[nH]cn1)NC(=O)[C@H](CC(=O)O)NC(=O)[C@H](Cc1ccc(O)cc1)NC(=O)CCNC(=O)CCNC(=O)OCC1c2ccccc2-c2ccccc21)
% Inhibition of Gadd45β-MKK7 binding [2]: 0%

Substance: Fmoc(βAla)2-YDHY-NH2 ({Fmoc-βAla-βAla}-YDHY-NH2; SMILES NC(=O)[C@H](Cc1ccc(O)cc1)NC(=O)[C@H](Cc1c[nH]cn1)NC(=O)[C@H](CC(=O)O)NC(=O)[C@H](Cc1ccc(O)cc1)NC(=O)CCNC(=O)CCNC(=O)OCC1c2ccccc2-c2ccccc21)
% Inhibition of Gadd45β-MKK7 binding [2]: 63%

Substance: Fmoc-YDFQ-NH2 (SMILES NC(=O)CC[C@H](NC(=O)[C@H](Cc1ccccc1)NC(=O)[C@H](CC(=O)O)NC(=O)[C@H](Cc1ccc(O)cc1)NC(=O)OCC1c2ccccc2-c2ccccc21)C(N)=O)
% Inhibition of Gadd45β-MKK7 binding (Table III, modified peptides): 19%

Substance: Fmoc-YERF-NH2
% Inhibition of Gadd45β-MKK7 binding (Table III, modified peptides): 60%

Substance: Myr-YERF-NH2 (Myristoyl-YERF-NH2)
% Inhibition of Gadd45β-MKK7 binding (Table III, modified peptides): 37%
